Where no end group is shown, it is not given here. [ ]: non-standard residue; d: D form. Aib = CC(C)(N)C(=O)O
Assays:
[1] = target: human glucagon receptor (GCGR) (human, UniProt P47871 26-477); assay: cell-based or functional assay
[2] = target: human GLP-1 receptor (GLP-1R) (human, UniProt P43220 24-463); assay: cell-based or functional assay
Sequence of human GLP-1 receptor (GLP-1R) (P43220 24-463): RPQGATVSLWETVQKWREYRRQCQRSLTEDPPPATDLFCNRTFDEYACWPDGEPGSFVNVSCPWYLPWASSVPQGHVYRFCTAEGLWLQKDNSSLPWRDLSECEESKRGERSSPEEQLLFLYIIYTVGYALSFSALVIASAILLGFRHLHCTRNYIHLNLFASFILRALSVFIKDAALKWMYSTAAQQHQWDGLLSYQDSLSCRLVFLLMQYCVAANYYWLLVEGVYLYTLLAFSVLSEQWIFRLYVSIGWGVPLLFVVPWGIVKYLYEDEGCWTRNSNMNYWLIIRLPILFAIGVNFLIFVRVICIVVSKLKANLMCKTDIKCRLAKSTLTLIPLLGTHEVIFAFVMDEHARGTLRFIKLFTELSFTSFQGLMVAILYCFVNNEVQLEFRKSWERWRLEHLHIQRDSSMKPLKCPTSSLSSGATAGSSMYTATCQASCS

Binder | hGCGR pEC50 (cAMP) [1] | hGLP1 pEC50 (cAMP) [2]
YSHGTFTSDYSKYLDAARAQEFVKWLEDEPKSKSPPPS-NH2 [Compound A80] | 12.5 pEC50 | < 9 pEC50
YSQGTFTSDYSKYLDSARAQEFVKWLEDEPKSKSPPPS [Compound A81] | 11 pEC50 | < 9 pEC50
YSQGTFTSDYSKYLDSARAQEFVKWLEDEPKSKAPPPS [Compound A82] | 11 pEC50 | < 9 pEC50
YSHGTFTSDYSKYLDSARAQEFTKWLEDEPKSKSPPPS [Compound A83] | 10.2 pEC50 | < 9 pEC50
YSHGTFTSDYSKYLDSARAQEFVKHLEDEPKSKSPPPS [Compound A84] | 9.4 pEC50 | < 9 pEC50
YSHGTFTSDYSKYLD[Aib]KRAQEFV[Aib]WLEDEPSSGKPPPS-NH2 (N-terminus assumed; SMILES CC(C)C[C@H](NC(=O)[C@H](Cc1ccc(O)cc1)NC(=O)[C@H](CCCCN)NC(=O)[C@H](CO)NC(=O)[C@H](Cc1ccc(O)cc1)NC(=O)[C@H](CC(=O)O)NC(=O)[C@H](CO)NC(=O)[C@@H](NC(=O)[C@H](Cc1ccccc1)NC(=O)[C@@H](NC(=O)CNC(=O)[C@H](Cc1c[nH]cn1)NC(=O)[C@H](CO)NC(=O)[C@@H](N)Cc1ccc(O)cc1)[C@@H](C)O)[C@@H](C)O)C(=O)N[C@@H](CC(=O)O)C(=O)NC(C)(C)C(=O)N[C@@H](CCCCN)C(=O)N[C@@H](CCCNC(=N)N)C(=O)N[C@@H](C)C(=O)N[C@@H](CCC(N)=O)C(=O)N[C@@H](CCC(=O)O)C(=O)N[C@@H](Cc1ccccc1)C(=O)N[C@H](C(=O)NC(C)(C)C(=O)N[C@@H](Cc1c[nH]c2ccccc12)C(=O)N[C@@H](CC(C)C)C(=O)N[C@@H](CCC(=O)O)C(=O)N[C@@H](CC(=O)O)C(=O)N[C@@H](CCC(=O)O)C(=O)N1CCC[C@H]1C(=O)N[C@@H](CO)C(=O)N[C@@H](CO)C(=O)NCC(=O)N[C@@H](CCCCN)C(=O)N1CCC[C@H]1C(=O)N1CCC[C@H]1C(=O)N1CCC[C@H]1C(=O)N[C@@H](CO)C(N)=O)C(C)C) [Compound A85] | 13.6 pEC50 | < 9 pEC50
YSQGTFTSDYSKYLD[Aib]KRAQEFV[Aib]WLEDEPSSGKPPPS [Compound A86] | 13.3 pEC50 | < 9 pEC50
YSHGTFTSDYSKYLD[Aib]KRAQEFV[Aib]WLEDEKSSGKPPPS [Compound A87] | 13.6 pEC50 | < 9 pEC50
YSHGTFTSDYSKYLD[Aib]KRAQEFV[Aib]WLEDEPSSGKKPPS [Compound A88] | 13.8 pEC50 | < 9 pEC50
YSHGTFTSDYSKYLD[Aib]KRAQEFV[Aib]HLEDEPSSGKPPPS [Compound A89] | 12.7 pEC50 | < 9 pEC50
YSHGTFTSDYSKYLD[Aib]KAAQEFV[Aib]WLEDEPSSGKPPPS [Compound A90] | 13.1 pEC50 | < 9 pEC50
WSQGTFTSDYSKYLD[Aib]KRAQEFV[Aib]WLEDEPSSGKPPPS [Compound A91] | 12.8 pEC50 | < 9 pEC50
WSQGTFTSDYSKYLD[Aib]KAAQEFV[Aib]WLEDEPSSGAPPPS [Compound A92] | 10.7 pEC50 | < 9 pEC50
WSQGTFTSDYSKYLD[Aib]KAAQEFV[Aib]WLEDEPSSGKPPPS [Compound A93] | 10.9 pEC50 | < 9 pEC50
YSHGTFTSDYSKYLD[Aib]KRAQEFV[Aib]WLEDEPSSGAPPPS-OH (N-terminus assumed; SMILES CC(C)C[C@H](NC(=O)[C@H](Cc1ccc(O)cc1)NC(=O)[C@H](CCCCN)NC(=O)[C@H](CO)NC(=O)[C@H](Cc1ccc(O)cc1)NC(=O)[C@H](CC(=O)O)NC(=O)[C@H](CO)NC(=O)[C@@H](NC(=O)[C@H](Cc1ccccc1)NC(=O)[C@@H](NC(=O)CNC(=O)[C@H](Cc1c[nH]cn1)NC(=O)[C@H](CO)NC(=O)[C@@H](N)Cc1ccc(O)cc1)[C@@H](C)O)[C@@H](C)O)C(=O)N[C@@H](CC(=O)O)C(=O)NC(C)(C)C(=O)N[C@@H](CCCCN)C(=O)N[C@@H](CCCNC(=N)N)C(=O)N[C@@H](C)C(=O)N[C@@H](CCC(N)=O)C(=O)N[C@@H](CCC(=O)O)C(=O)N[C@@H](Cc1ccccc1)C(=O)N[C@H](C(=O)NC(C)(C)C(=O)N[C@@H](Cc1c[nH]c2ccccc12)C(=O)N[C@@H](CC(C)C)C(=O)N[C@@H](CCC(=O)O)C(=O)N[C@@H](CC(=O)O)C(=O)N[C@@H](CCC(=O)O)C(=O)N1CCC[C@H]1C(=O)N[C@@H](CO)C(=O)N[C@@H](CO)C(=O)NCC(=O)N[C@@H](C)C(=O)N1CCC[C@H]1C(=O)N1CCC[C@H]1C(=O)N1CCC[C@H]1C(=O)N[C@@H](CO)C(=O)O)C(C)C) [Compound A99] |  | < 9 pEC50
YSHGTFTSDYSKYLD[Aib]KRAQEFV[Aib]WLEDE-OH (N-terminus assumed; SMILES CC(C)C[C@H](NC(=O)[C@H](Cc1ccc(O)cc1)NC(=O)[C@H](CCCCN)NC(=O)[C@H](CO)NC(=O)[C@H](Cc1ccc(O)cc1)NC(=O)[C@H](CC(=O)O)NC(=O)[C@H](CO)NC(=O)[C@@H](NC(=O)[C@H](Cc1ccccc1)NC(=O)[C@@H](NC(=O)CNC(=O)[C@H](Cc1c[nH]cn1)NC(=O)[C@H](CO)NC(=O)[C@@H](N)Cc1ccc(O)cc1)[C@@H](C)O)[C@@H](C)O)C(=O)N[C@@H](CC(=O)O)C(=O)NC(C)(C)C(=O)N[C@@H](CCCCN)C(=O)N[C@@H](CCCNC(=N)N)C(=O)N[C@@H](C)C(=O)N[C@@H](CCC(N)=O)C(=O)N[C@@H](CCC(=O)O)C(=O)N[C@@H](Cc1ccccc1)C(=O)N[C@H](C(=O)NC(C)(C)C(=O)N[C@@H](Cc1c[nH]c2ccccc12)C(=O)N[C@@H](CC(C)C)C(=O)N[C@@H](CCC(=O)O)C(=O)N[C@@H](CC(=O)O)C(=O)N[C@@H](CCC(=O)O)C(=O)O)C(C)C) [Compound A100] |  | < 9 pEC50
YGHGTFTSDHSKYLD[Aib]KRAQEFVKWLEDE-OH (N-terminus assumed; SMILES CC(C)C[C@H](NC(=O)[C@H](Cc1c[nH]c2ccccc12)NC(=O)[C@H](CCCCN)NC(=O)[C@@H](NC(=O)[C@H](Cc1ccccc1)NC(=O)[C@H](CCC(=O)O)NC(=O)[C@H](CCC(N)=O)NC(=O)[C@H](C)NC(=O)[C@H](CCCNC(=N)N)NC(=O)[C@H](CCCCN)NC(=O)C(C)(C)NC(=O)[C@H](CC(=O)O)NC(=O)[C@H](CC(C)C)NC(=O)[C@H](Cc1ccc(O)cc1)NC(=O)[C@H](CCCCN)NC(=O)[C@H](CO)NC(=O)[C@H](Cc1c[nH]cn1)NC(=O)[C@H](CC(=O)O)NC(=O)[C@H](CO)NC(=O)[C@@H](NC(=O)[C@H](Cc1ccccc1)NC(=O)[C@@H](NC(=O)CNC(=O)[C@H](Cc1c[nH]cn1)NC(=O)CNC(=O)[C@@H](N)Cc1ccc(O)cc1)[C@@H](C)O)[C@@H](C)O)C(C)C)C(=O)N[C@@H](CCC(=O)O)C(=O)N[C@@H](CC(=O)O)C(=O)N[C@@H](CCC(=O)O)C(=O)O) [Compound A101] |  | < 9 pEC50
YSHGTFTSDYSKWLD[Aib]KRAQEFVKWLEDE-OH (N-terminus assumed; SMILES CC(C)C[C@H](NC(=O)[C@H](Cc1c[nH]c2ccccc12)NC(=O)[C@H](CCCCN)NC(=O)[C@@H](NC(=O)[C@H](Cc1ccccc1)NC(=O)[C@H](CCC(=O)O)NC(=O)[C@H](CCC(N)=O)NC(=O)[C@H](C)NC(=O)[C@H](CCCNC(=N)N)NC(=O)[C@H](CCCCN)NC(=O)C(C)(C)NC(=O)[C@H](CC(=O)O)NC(=O)[C@H](CC(C)C)NC(=O)[C@H](Cc1c[nH]c2ccccc12)NC(=O)[C@H](CCCCN)NC(=O)[C@H](CO)NC(=O)[C@H](Cc1ccc(O)cc1)NC(=O)[C@H](CC(=O)O)NC(=O)[C@H](CO)NC(=O)[C@@H](NC(=O)[C@H](Cc1ccccc1)NC(=O)[C@@H](NC(=O)CNC(=O)[C@H](Cc1c[nH]cn1)NC(=O)[C@H](CO)NC(=O)[C@@H](N)Cc1ccc(O)cc1)[C@@H](C)O)[C@@H](C)O)C(C)C)C(=O)N[C@@H](CCC(=O)O)C(=O)N[C@@H](CC(=O)O)C(=O)N[C@@H](CCC(=O)O)C(=O)O) [Compound A102] |  | < 9 pEC50
YSHGTFTSDYSKYLD[Aib]ARAQEFV[Aib]WLEDEPSSGAPPPS-OH (N-terminus assumed; SMILES CC(C)C[C@H](NC(=O)[C@H](Cc1ccc(O)cc1)NC(=O)[C@H](CCCCN)NC(=O)[C@H](CO)NC(=O)[C@H](Cc1ccc(O)cc1)NC(=O)[C@H](CC(=O)O)NC(=O)[C@H](CO)NC(=O)[C@@H](NC(=O)[C@H](Cc1ccccc1)NC(=O)[C@@H](NC(=O)CNC(=O)[C@H](Cc1c[nH]cn1)NC(=O)[C@H](CO)NC(=O)[C@@H](N)Cc1ccc(O)cc1)[C@@H](C)O)[C@@H](C)O)C(=O)N[C@@H](CC(=O)O)C(=O)NC(C)(C)C(=O)N[C@@H](C)C(=O)N[C@@H](CCCNC(=N)N)C(=O)N[C@@H](C)C(=O)N[C@@H](CCC(N)=O)C(=O)N[C@@H](CCC(=O)O)C(=O)N[C@@H](Cc1ccccc1)C(=O)N[C@H](C(=O)NC(C)(C)C(=O)N[C@@H](Cc1c[nH]c2ccccc12)C(=O)N[C@@H](CC(C)C)C(=O)N[C@@H](CCC(=O)O)C(=O)N[C@@H](CC(=O)O)C(=O)N[C@@H](CCC(=O)O)C(=O)N1CCC[C@H]1C(=O)N[C@@H](CO)C(=O)N[C@@H](CO)C(=O)NCC(=O)N[C@@H](C)C(=O)N1CCC[C@H]1C(=O)N1CCC[C@H]1C(=O)N1CCC[C@H]1C(=O)N[C@@H](CO)C(=O)O)C(C)C) [Compound A103] |  | < 9 pEC50

Source: patent publication US20180009871A1 (INTARCIA THERAPEUTICS, published 2018)
